Assays:
[1] = molecular target: T1, murine PD-L1 on CHO cells (murine, UniProt Q9EP73 19-290); assay: FIG. 4 legend: Octet avidity curves and FACS on CHO-PD-L1 cells
T1 construct: whole, on cells; also called CHO-PD-L1 cells
Protocol: (§1) Antibody Activity. Varying concentrations of PD-L1 antibodies, with human IgG1 backbones, were added to CHO cells expressing either human or murine PD-L1 (CHO-PD-L1 cells). Binding was detected by addition of anti-human IgG1 secondary antibody conjugated to phycoerythrin. FACS analysis was performed, detecting phycoerythrin to determine fluorescence activity at a variety of antibody concentrations. EC50 was calculated using GraphPad Prism® software.

human PD-L1 on CHO cells = molecular target: T2, human PD-L1 on CHO cells (human, UniProt Q9NZQ7 19-290); assay: FIG. 4: Octet avidity curves and FACS on CHO-PD-L1 cells
T2 construct: also called CHO-PD-L1 cells
T2 sequence (Q9NZQ7 19-290 limits assumed): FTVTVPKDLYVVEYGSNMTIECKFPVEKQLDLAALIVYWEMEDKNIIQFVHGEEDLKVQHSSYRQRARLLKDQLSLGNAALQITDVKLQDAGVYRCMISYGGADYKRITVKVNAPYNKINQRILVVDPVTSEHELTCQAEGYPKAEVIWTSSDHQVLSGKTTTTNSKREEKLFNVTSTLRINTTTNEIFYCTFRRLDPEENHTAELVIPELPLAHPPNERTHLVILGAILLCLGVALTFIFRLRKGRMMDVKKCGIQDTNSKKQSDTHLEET
Protocol: as §1

T1 sequence (Q9EP73 19-290): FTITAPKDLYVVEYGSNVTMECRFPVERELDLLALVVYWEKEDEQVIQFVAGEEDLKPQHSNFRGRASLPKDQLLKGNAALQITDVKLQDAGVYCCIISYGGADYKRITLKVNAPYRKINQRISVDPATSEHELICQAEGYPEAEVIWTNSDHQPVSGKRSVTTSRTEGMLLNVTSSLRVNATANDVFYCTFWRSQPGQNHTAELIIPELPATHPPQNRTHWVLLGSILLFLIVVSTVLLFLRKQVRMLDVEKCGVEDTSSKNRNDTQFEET

- binding result [1]: binds
- binding result (human PD-L1 on CHO cells): binds
B1: ADI-20799 (antibody, human IgG1, V domains shown)
VH: QVQLVQSGAEVKKPGASVKVSCKASGYTFTGVYMHWVRQAPGQGLEWMGGIFPIGGTANYAQKFQGRVTITADESTSTAYMELSSLRSEDTAVYYCARDRTSGALYWGQGTLVTVSS
VL: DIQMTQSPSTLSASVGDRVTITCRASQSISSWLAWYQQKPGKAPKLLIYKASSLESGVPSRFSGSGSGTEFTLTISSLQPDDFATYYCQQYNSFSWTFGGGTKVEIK

Source: patent US20250320296A1 (published 2025)
